Data set [1] concerns the molecule itself. The data set can be described thus: cross-linking; in vivo disulfide cross-linking of V5-tagged full-length XcpQ variants in P. aeruginosa PAO1 ΔxcpQ; membranes with N-ethylmaleimide, SDS-PAGE denaturing, nonreducing or reducing, anti-V5 blot.
Data set [2] addresses T1, XcpQ_(N012) with biotin tag (fixed on streptavidin sensors) (Pseudomonas aeruginosa) (UniProt P35818).
T1 sequence (chain, biotin (biotin tag, site not stated)): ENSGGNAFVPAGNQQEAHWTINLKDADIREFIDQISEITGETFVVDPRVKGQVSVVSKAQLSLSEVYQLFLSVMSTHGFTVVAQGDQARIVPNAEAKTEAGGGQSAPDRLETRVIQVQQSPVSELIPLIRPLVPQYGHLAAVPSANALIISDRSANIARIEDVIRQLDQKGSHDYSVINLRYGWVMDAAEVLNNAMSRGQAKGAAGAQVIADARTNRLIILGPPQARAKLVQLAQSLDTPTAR
Briefly: BLI; XcpQ_(N012) fixed on streptavidin sensors by a biotin tag; soluble vHH04 from 0.156 to 10 µM.

Data set [3] deals with T2, XcpQ_(N012) (N0, N1 and N2 subdomains of the periplasmic N-terminal domain of the P. aeruginosa XcpQ secretin) (Pseudomonas aeruginosa, UniProt P35818).
T2 construct: XcpQ secretin of the Xcp type II secretion system, Pseudomonas aeruginosa; subdomains N0, N1 and N2; 26 kDa; the whole N domain covers residues 51 to 365; Found in solution as dimers (L) and dodecamers (H); also called matured XcpQ_(N012); untagged XcpQ_(N012)
The data set can be described thus: SEC; vHH04 mixed with the preformed XcpQ_(N012) multimer (dodecamer); shift of the H peak. As to conditions: both partners purified.

Data set [4] deals with the molecule itself. The data set can be described thus: negative-staining single-particle electron microscopy; SEC fractions diluted to 0.02-0.05 mg/ml, uranyl acetate stain, EMAN2 2D classes; 3D reconstruction with C6 symmetry imposed for the Trx fusions.
Data set [5] concerns the molecule itself. The data set can be described thus: SEC + cross-linking; XcpQ_(N012)-T54C-Q86C without H2O2 treatment, HiLoad Superdex 200 16/600; oligomeric fractions on SDS-PAGE under reducing and nonreducing conditions.
Data set [6] deals with the molecule itself. Briefly: SEC; HiLoad 16/600 Superdex 200 column calibrated with standard proteins; purified protein alone. On the technique in general: SEC sorts molecules by how far they enter the pores of the column.
The target in data set [7] is T3, chitin binding protein D (CbpD), Xcp T2SS effector (Pseudomonas aeruginosa, UniProt Q9I589 26-389).
T3 construct: Coupled to the BLi sensor; source: purified
T3 sequence: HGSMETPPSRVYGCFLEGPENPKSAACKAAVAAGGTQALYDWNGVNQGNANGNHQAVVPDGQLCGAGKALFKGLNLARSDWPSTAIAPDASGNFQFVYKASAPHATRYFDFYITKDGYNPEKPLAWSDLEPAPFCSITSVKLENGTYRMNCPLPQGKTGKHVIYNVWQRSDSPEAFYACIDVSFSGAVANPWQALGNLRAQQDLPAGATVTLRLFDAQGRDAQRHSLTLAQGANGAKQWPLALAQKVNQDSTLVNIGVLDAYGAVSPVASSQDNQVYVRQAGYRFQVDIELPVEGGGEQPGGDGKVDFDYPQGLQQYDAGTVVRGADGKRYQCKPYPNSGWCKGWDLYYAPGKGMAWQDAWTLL
The data set can be described thus: BLI; sensor coupled to CbpD or to XcpPp; XcpQ_(N012) alone or the XcpQ_(N012)-vHH04 complex in solution. As to conditions: both partners purified.

Residue numbers refer to the chain shown, from its start. Names may count otherwise. “And” between values parts separate entries of the source, which are not always exact repeats. Identical values can stand only once.

B1: full-length XcpQ-S210C (natural protein)
chain: ENSGGNAFVPAGNQQEAHWTINLKDADIREFIDQISEITGETFVVDPRVKGQVSVVSKAQLSLSEVYQLFLSVMSTHGFTVVAQGDQARIVPNAEAKTEAGGGQSAPDRLETRVIQVQQSPVSELIPLIRPLVPQYGHLAAVPSANALIISDRSANIARIEDVIRQLDQKGSHDYCVINLRYGWVMDAAEVLNNAMSRGQAKGAAGAQVIADARTNRLIILGPPQARAKLVQLAQSLDTPTARSANTRVIRLRHNDAKTLAETLGQISEGMKNNGGQGGEQTGGGRPSNILIRADESTNALVLLADPDTVNALEDIVRQLDVPRAQVLVEAAIVEISGDIQDAVGVQWAINKGGMGGTKTNFANTGLSIGTLLQSLESNKAPESIPDGAIVGIGSSSFGALVTALSANTKSNLLSTPSLLTLDNQKAEILVGQNVPFQTGSYTTNSEGSSNPFTTVERKDIGVSLKVTPHINDGAALRLEIEQEISALLPNAQQRNNTDLITSKRSIKSTILAENGQVIVIGGLIQDDVSQAESKVPLLGDIPLLGRLFRSTKDTHTKRNLMVFLRPTVVRDSAGLAALSGKKYSDIRVIDGTRGPEGRPSILPTNANQLFDGQAVDLRELMTE
modifications: disulfide bridge between S210C of two chains
notes: XcpQ secretin, Pseudomonas aeruginosa, full length; Made with its own signal peptide and exported to the envelope; source: P. aeruginosa PAO1 ΔxcpQ, pJN vector, arabinose-induced, in membrane samples; not shown: V5, C-terminal, kept
B1: the stoichiometry N (usually a count of units in the complex or per binding partner) in data set [1] was 2.

B2: full-length XcpQ-T54C-Q86C (natural protein)
chain: B1 chain with T20C, Q52C, C176S
modifications: disulfide bridge between T54C and Q86C of two chains
notes: as for B1
As for B2, in data set [1], the “stoichiometry N” value was found to be 2.

B3: vHH04 nanobody directed against XcpQN (VHH)
VHH: QVQLVESGGGSVQAGGSLRLSCAASGNTDSSYYMGWFRQGPGKEREGVASIYIRAGIPYYTDSVKGRFTISQDNAKNTIYLQMNSLKPEDTAMYFCAGSVRTTIQPFKGNYYNYWGRGTQVTVSS
notes: camel nanobody; About 16 kDa; For the in vivo interference the histidine-tagged vHH04 was produced in the periplasm of P. aeruginosa PAO1 (IPTG-inducible); also called histidine-tagged vHH04; His-tagged vHH04; source: E. coli WK6, purified
As for B3, the Kd (as a rule, a measure of binding affinity in units of concentration) in data set [2] is 5.6 µM. Also, the “stoichiometry N” value in data set [3] was 6 vHH04 per XcpQ_(N012) dodecamer.

B4: Trx-XcpQ_(N012)-S210C (domain or fragment)
chain: T1 sequence (chain, biotin (biotin tag, site not stated)) with S176C
notes: XcpQ secretin, Pseudomonas aeruginosa; subdomains N0, N1 and N2; Uncleaved thioredoxin fusion of m3; source: E. coli BL21(DE3)pLysS, purified; copies: 12
Consider B4, for which, in data set [4], the binding result is reported as “binds”.

B5: XcpQ_(N012)-T54C-Q86C (domain or fragment)
chain: T1 sequence (chain, biotin (biotin tag, site not stated)) with T20C, Q52C
modifications: disulfide bridges between T54C and Q86C of neighbouring chains
notes: XcpQ secretin, Pseudomonas aeruginosa; subdomains N0, N1 and N2; source: E. coli BL21(DE3)pLysS, purified (same protocol as XcpQ_(N012), SEC without H2O2 treatment)
For the molecule B5, the “stoichiometry N” value in data set [5] was 12 and 4 and 6.

B6: Trx-XcpQ_(N012) fusion protein (domain or fragment)
chain: T1 sequence (chain, biotin (biotin tag, site not stated))
notes: XcpQ secretin, Pseudomonas aeruginosa; subdomains N0, N1 and N2; Uncleaved thioredoxin fusion of m1; also called Trx-Q_(N012); source: E. coli BL21(DE3)pLysS, purified (SEC); copies: 12
Consider B6, for which, in data set [6], the “stoichiometry N” value amounted to 12.

B7: XcpQ_(N012) (N0, N1 and N2 subdomains of the periplasmic N-terminal domain of the P. aeruginosa XcpQ secretin) (domain or fragment, Pseudomonas aeruginosa)
chain: T1 sequence (chain, biotin (biotin tag, site not stated))
notes: XcpQ secretin of the Xcp type II secretion system, Pseudomonas aeruginosa; subdomains N0, N1 and N2; 26 kDa; the whole N domain covers residues 51 to 365; Found in solution as dimers (L) and dodecamers (H); also called matured XcpQ_(N012); untagged XcpQ_(N012)
As to B7, in data set [7], the binding result is listed as “binds”.
